Experimental data taken from patent publication US20220340682A1 (Sanofi, published 2022).

B1: antibody MAb1 (antibody, IgG1, V domains shown)
VH: EVMLVESGGGLVKPGGSLKLSCAASGFTFSSYAMSWVRQTPEKRLEWVATISSGGSYIYYLDSVKGRFTISRDNAKNTLYLQMSSLRSEDTAMYYCARPAYYGNPAMDYWGQGTSVTVSS
VL: DILMTQSQKFMSTSVGDRVSVTCKASQNVGTNVAWYQQKPGQSPKPLIYSASYRYSGVPDRFTGSGSGTDFTLTISNVQSEDLAEYFCQQYNSYPLYTFGGGTKLEIK
B2: antibody MAb3 (antibody, IgG1, V domains shown)
VH: EVKLVESGGGLVKPGGSLTLPCAASGFTFSRYAMSWVRQTPEKRLEWVASISSGGDTYYPDSVKGRFTVSRDNARNILFLQMSSLRSEDTGMYYCARVNYYDSSFLDWWGQGTTLTVSS
VL: DIVMTQSQRFMSTLEGDRVSVTCKASQNVGTNVAWYQQKPGQSPKALIYSASYRYSGVPDRFTGSGSGTDFTLTISNVQSEDLAEYFCQQYNNYPLYTFGGGTKLEIK
notes: Murine monoclonal from hybridoma, IgG1, kappa
B3: antibody MAb4 (antibody, IgG1, V domains shown)
VH: EVQLVESGGGLVKPGGSLKLSCAASGFTFSSYDMSWVRQTPEKRLEWVAFISSYGGRTYYADTVKGRFTISRDNAKNTLYLQMSSLKSEDTAMFYCAAHYFGTSGPFAYWGQGTLVTVSA
VL: DIQMTQSPASLSASVGETVTITCRASENIYSYFAWYQQKQGKSPQLLVYNAKILAEGVPSRFSGSGSGTQFSLKINSLQPEDFGTYYCQHHYGIPFTFGSGTKLELK
notes: as for B2
B4: antibody MAb5 (antibody, IgG1, V domains shown)
VH: ELQLVESGGVLVKPGGSLKLSCAASGFAFSSYDMSWVRQTPEKRLEWVTYINSGGGITYYPDTVKGRFTISRDNARNTLYLQMSSLKSEDTAIYYCTAHYFGSSGPFAYWGQGTLVTVSA
VL: DIQMTQSPASLSASVGETVTITCRASENIYSYLAWYQQKQGKSPQLLVYNAKTLTEGVPSRFSGSGSGTQFSLKINSLQPEDFGSYYCQHHYGTPFTFGSGTKLEIK
notes: as for B2
B5: huMAb2-3 (antibody, human IgG1, kappa, V domains shown)
VH: EVQLQESGPGLVKPGGSLSLSCAASGFVFSSYDMSWVRQTPERGLEWVAYISSGGGITYAPSTVKGRFTVSRDNAKNTLYLQMNSLTSEDTAVYYCAAHYFGSSGPFAYWGQGTLVTVSS
VL: DIQMTQSPASLSASVGDRVTITCRASENIFSYLAWYQQKPGKSPKLLVYNTRTLAEGVPSRFSGSGSGTDFSLTISSLQPEDFATYYCQHHYGTPFTFGSGTKLEIKR
notes: Humanized MAb2, human IgG1 / Ckappa; also called MAb2_VL1cVH1a-IgG1
B6: huMAb2-4 (antibody, human IgG1, kappa, V domains shown)
VH: EVQLQESGPGLVKPGGSLSLSCAASGFVFSSYDMSWVRQTPERRLEWVAYISSGGGITYFPSTVKGRFTVSRDNAKNTLYLQMNSLTSEDTAIYYCAAHYFGSSGPFAYWGQGTLVTVSA
VL: DIQMTQSPASLSASVGDTVTITCRASENIFSYLAWYQQKPGKSPKLLVYNTRTLAEGVPSRFSGSGSGTQFSLTISSLQPEDFGSYYCQHHYGTPFTFGSGTKLEIKR
notes: Humanized MAb2, human IgG1 / Ckappa; also called MAb2_VL1d VH1-IgG1; MAb2_VL1dVH1-IgG1
B7: chMAb2 (antibody, human IgG1, kappa, V domains shown)
VH: EVQLQESGGVLVKPGGSLKLSCAASGFVFSSYDMSWVRQTPEKRLEWVAYISSGGGITYFPDTVQGRFTVSRDNAKNTLYLQMNSLKSEDTAIYYCAAHYFGSSGPFAYWGQGTLVTVSA
VL: DIQMTQSPASLSASVGETVTITCRASENIFSYLAWYQQKQGKSPQLLVYNTKTLAEGVPSRFSGSGSGTQFSLKINSLQPEDFGSYYCQHHYGTPFTFGSGTKLEIKR
notes: Chimeric, human IgG1, Ck isotype; also called MAb2-IgG1; chimeric MAb2
B8: huMAb2-1 (antibody, V domains shown)
VH: EVQLQESGPGLVKPGGSLSLSCAASGFVFSSYDMSWVRQTPERRLEWVAYISSGGGITYFPSTVKGRFTVSRDNAKNTLYLQMNSLTSEDTAIYYCAAHYFGSSGPFAYWGQGTLVTVSA
VL: DIQMTQSPASLSASVGDTVTITCRASENIFSYLAWYQQKPGKSPKLLVYNTKTLAEGVPSRFSGSGSGTQFSLTISSLQPEDFGSYYCQHHYGTPFTFGSGTKLEIK
notes: Humanized MAb2 (VL1 + VH1) fused to human IgG1 and human Ckappa constant domains; also called MAb2_VL1VH1-IgG1; MAb2VL1VH1-IgG1
B9: huMAb2-2 (antibody, V domains shown)
VH: EVQLQESGPGLVKPGGSLSLSCAASGFVFSSYDMSWVRQTPERGLEWVAYISSGGGITYAPSTVKGRFTVSRDNAKNTLYLQMNSLTSEDTAVYYCAAHYFGSSGPFAYWGQGTLVTVSS
VL: DIQMTQSPASLSASVGDRVTITCRASENIFSYLAWYQQKPGKSPKLLVYNTKTLAEGVPSRFSGSGSGTDFSLTISSLQPEDFATYYCQHHYGTPFTFGSGTKLEIK
notes: Humanized MAb2 (VL1a + VH1a) fused to human IgG1 and human Ckappa constant domains; also called MAb2_VL1aVH1a-IgG1; MA2_VL1aVH1a-IgG1

Each binder was assayed against T1, human CEACAM5 expressed on the surface of tumor cells (human, UniProt P06731 35-685) (assay: apparent KD, flow cytometry on CR-IGR-034P primary colon tumor cells).
T1 construct: Endogenous CEACAM5 of human tumor cells; also called hCEACAM5 on MKN45 cells; CEACAM5 on CR-IGR-034P primary colon tumor cells
T1 sequence: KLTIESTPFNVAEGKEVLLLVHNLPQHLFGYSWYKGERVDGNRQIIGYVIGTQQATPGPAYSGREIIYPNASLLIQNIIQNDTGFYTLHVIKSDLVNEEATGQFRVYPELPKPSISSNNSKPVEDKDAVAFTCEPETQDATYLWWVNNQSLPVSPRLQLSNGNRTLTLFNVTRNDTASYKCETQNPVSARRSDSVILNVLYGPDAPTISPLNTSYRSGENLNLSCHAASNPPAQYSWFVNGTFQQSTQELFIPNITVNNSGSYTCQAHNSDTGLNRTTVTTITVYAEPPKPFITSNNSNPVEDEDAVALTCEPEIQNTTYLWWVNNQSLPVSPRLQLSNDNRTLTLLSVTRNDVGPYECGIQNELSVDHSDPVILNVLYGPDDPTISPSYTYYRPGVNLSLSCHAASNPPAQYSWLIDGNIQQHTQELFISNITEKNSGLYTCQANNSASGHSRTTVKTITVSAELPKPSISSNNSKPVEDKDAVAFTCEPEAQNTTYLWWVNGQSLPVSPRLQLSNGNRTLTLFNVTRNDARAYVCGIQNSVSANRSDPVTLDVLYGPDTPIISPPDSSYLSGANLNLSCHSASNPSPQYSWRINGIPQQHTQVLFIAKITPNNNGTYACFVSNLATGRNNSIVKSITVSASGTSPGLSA
Protocol: Advanced human primary colon tumor CR-IGR-034P (Julien et al., Clin Cancer Res Oct. 1, 2012 18:5314-5328) was obtained from Patient-derived xenograft in mice. Tumor CR-IGR-034P was enzymatically dissociated using collagenase Type IV (Invitrogen; #17104-019) and deoxyribonuclease I (Invitrogen; #18047-019) for 1 h at […], Cell viability was estimated by Viacount application using Guava® easyCyte™ 8HT Flow Cytometry System. […] 100 μL/well of goat anti-mouse IgG conjugated with Alexa647 (Invitrogen; # A2135) or goat anti-human IgG conjugated with Alexa488 (Invitrogen; # A11013) was added for 45 min at 4° C. and washed three times with PBS 1% BSA. The antibody binding was evaluated after centrifugation and resuspension of cells by adding 200 pliwell PBS 1% BSA and read using Guava® easyCyte™ 8HT Flow Cytometry System. Apparent KD and EC50 values were estimated using BIOST@T-BINDING and BIOST@T-SPEED softwares, respectively.
Work on B1 yielded a Kd of 1.92 nM.
For B2, the Kd was 1.01 nM.
For B3, the Kd was 0.16 nM.
B4 gave a Kd of 0.5 nM.

Molecular target: T2, cCEACAM5, M. fascicularis CEACAM5 ECD (35-688) (Macaca fascicularis)
T2 construct: ECD followed by a 24 amino acid extension containing a His-Tag; also called cynomolgus CEACAM5; monkey CEACAM5
T2 chain: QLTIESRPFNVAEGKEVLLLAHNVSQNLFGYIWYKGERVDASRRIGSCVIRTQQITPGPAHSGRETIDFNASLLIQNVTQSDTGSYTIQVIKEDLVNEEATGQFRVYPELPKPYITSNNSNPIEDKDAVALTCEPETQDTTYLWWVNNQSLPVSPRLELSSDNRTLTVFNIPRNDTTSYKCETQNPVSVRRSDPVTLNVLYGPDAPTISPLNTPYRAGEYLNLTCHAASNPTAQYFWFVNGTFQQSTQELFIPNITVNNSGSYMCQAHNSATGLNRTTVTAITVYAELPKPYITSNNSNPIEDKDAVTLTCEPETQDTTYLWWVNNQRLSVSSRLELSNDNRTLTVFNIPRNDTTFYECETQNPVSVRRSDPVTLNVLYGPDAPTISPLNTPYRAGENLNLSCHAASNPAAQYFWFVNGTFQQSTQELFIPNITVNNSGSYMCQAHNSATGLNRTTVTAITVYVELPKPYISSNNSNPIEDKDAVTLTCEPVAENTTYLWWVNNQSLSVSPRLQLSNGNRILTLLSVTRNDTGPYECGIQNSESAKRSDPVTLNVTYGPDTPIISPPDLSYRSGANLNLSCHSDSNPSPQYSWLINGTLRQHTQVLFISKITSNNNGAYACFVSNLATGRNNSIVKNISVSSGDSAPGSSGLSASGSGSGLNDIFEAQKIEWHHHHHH
Experiment: SPR (BIAcore 2000), mAb captured by anti-human Fc, antigen injected 1-500 nM
Protocol: The binding kinetics of humanized anti-CEACAM5_MAb2 variants, compared with chimeric MAb2, to recombinant human CEACAM5 (hCEACAM5) and cynomolgus monkey CEACAM5 (cCEACAM5) were determined by surface plasmon resonance assay using a BlAcore 2000 (BlAcore Inc., Uppsala, N.J.).
Briefly, a CM5 BlAcore biosensor chip was docked into the instrument and activated with 70 μL of 1:1 NHS/EDC at room temperature. A mouse anti-ahuman Fc IgG1 (BlAcore # BR-1008-39) (50 μg/mL in […] acetate buffer, pH5) were immobilized on the activated chips in all flow cells. The immobilization was carried out at a flow rate of 10 μL/min up to saturation. The chip was then blocked by injection of 70 μL of ethanolamine-HCl, pH8.5, followed by one wash with 3M MgCl2. To measure the binding of anti-CEACAM5 mAbs to the human CEACAM5 protein or cynomolgus CEACAM5 protein, antibodies were used at 1-5 μg/mL in BlAcore running buffer (HBS-EP). Antigens (human CEACAM5 or cynomolgus CEACAM5) were injected from 1 to 500 nM. Following completion of the injection phase, dissociation was monitored in a BlAcore running buffer at the same flow rate for 600 sec. The surface was regenerated between injections using 2×5 μL MgCl2 3M (2×30s). Individual sensorgrams were analyzed using BlAevaluation software.
For B5, the Kd was 73.5 nM.
With B6 the Kd was 38.6 nM.
B7 showed a Kd of 52.3 nM.
B8 showed a Kd of 41.7 nM.
With B9 the Kd was 96 nM.
